Tests used:
[1] = biological target: T1, Recombinant His-tagged HP1γ (CSD) (human, UniProt Q13185 110-183); assay: pull-down; His-tagged HP1γ forms incubated with GST-KDM2A fragments in 300 mM NaCl, 50 mM Na-phosphate pH 7.0, 4 °C 1 h; collected on TALON resin (1% NP40 washes); SDS-PAGE; settings: both partners purified
T1 construct: HP1γ, human, chromoshadow domain construct, amino acids 110-183; Limits 110-183 are those printed for the HP1γ (CSD) cDNA; the His-tag plasmids are described only as 'His-tag HP1γ and its mutants'; also called CSD of HP1γ; His-HP1γ mutant; source: E. coli DH5α (pCold I), isolated with TALON His-tag resin, dialysed
T1 sequence (Q13185 110-183): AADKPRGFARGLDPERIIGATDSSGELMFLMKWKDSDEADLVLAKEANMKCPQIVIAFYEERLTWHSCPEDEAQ

[2] = biological target: T2, Recombinant His-tagged HP1γ (human, UniProt Q13185 1-183); assay: as above; settings: both partners purified
T2 construct: HP1γ, human; the cDNA used encodes 183 amino acids; pCold I vector; also called His-HP1γ; His-tag HP1γ; source: E. coli DH5α (pCold I), isolated with TALON His-tag resin, dialysed
T2 sequence (Q13185 whole entry): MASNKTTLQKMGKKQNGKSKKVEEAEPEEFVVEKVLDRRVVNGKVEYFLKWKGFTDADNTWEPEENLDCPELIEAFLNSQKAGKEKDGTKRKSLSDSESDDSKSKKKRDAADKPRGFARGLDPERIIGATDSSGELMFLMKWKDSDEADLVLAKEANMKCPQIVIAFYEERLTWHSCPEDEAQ

binding result [1]: binds
binding result [2]: binds
B1: recombinant KDM2A fragment (amino acids 785–817) fused with GST (domain or fragment, UniProt Q9Y2K7 785-817, looked up)
chain: ELSEVEKAKIRGSYLTVTLQRPTKELHGTSIVP
notes: also called GST-KDM2A fragment; source: E. coli DH5α (pGEX-3X), isolated on glutathione-Sepharose, dialysed

— publication PMC6677663, “KDM2A-dependent reduction of rRNA transcription on glucose starvation requires HP1 in cells, including triple-negative breast cancer cells” (Oncotarget, 2019)
